Values of other authors in paper PMC5587394.

Target: FGF20 (Homo sapiens) (UniProt Q9NP95)

Sequence of FGF20 (Q9NP95 whole entry): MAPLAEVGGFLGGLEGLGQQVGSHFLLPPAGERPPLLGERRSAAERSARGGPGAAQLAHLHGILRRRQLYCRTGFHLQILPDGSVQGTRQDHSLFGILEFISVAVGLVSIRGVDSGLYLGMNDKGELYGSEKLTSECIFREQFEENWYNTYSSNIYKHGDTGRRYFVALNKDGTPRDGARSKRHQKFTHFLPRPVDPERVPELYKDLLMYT

Kd: 100 nM
Substance: FGF20 (from UniProt Q9NP95)
